Measurements as given in PMC3622243.

Tests used:
[1] = biological target: HLA-B27 heterotrimer complexed with the HIV GAG-KK10 L6M escape mutant peptide (human | not stated | HIV); test: SPR
HLA-A3 heterotrimer = test: SPR
[2] = biological target: HLA-B27 free heavy chains generated from immobilised heterotrimers (human); test: SPR
[3] = biological target: HLA-A2 expressed by transfected LBL.721.221 cells (human); test: flow cytometry on cells
[4] = biological target: HLA-A3 expressed by transfected LBL.721.221 cells (human); test: flow cytometry on cells
[5] = biological target: HLA-B*2705 expressed by transfected LBL.721.221 cells (human); test: flow cytometry on cells
[6] = biological target: HLA-B35 expressed by transfected LBL.721.221 cells (human); test: flow cytometry on cells
[7] = biological target: c67s mutant of HLA-B*2705 expressed by transfected LBL.721.221 cells (human); test: flow cytometry on cells

Substance	Kd [1] [µM]	Kd (HLA-A3 heterotrimer) [µM]	Kd [2] [µM]	geometric mean fluorescent intensity [3]	geometric mean fluorescent intensity [4]	geometric mean fluorescent intensity [5]	geometric mean fluorescent intensity after inhibition with HC10 [5]	geometric mean fluorescent intensity after inhibition with W632 [5]	geometric mean fluorescent intensity after isotype control MAbs [5]	geometric mean fluorescent intensity [6]	geometric mean fluorescent intensity [7]
LILRB1 incorporating the two immunoglobulin-like domains D1 and D2 (domain or fragment)	3.93	–	–	–	–	–	–	–	–	–	–
LILRB2 incorporating the two immunoglobulin-like domains D1 and D2 (domain or fragment)	16	25.3	2.6	–	–	–	–	–	–	–	–
Soluble LILRB2Fc incorporating the D1, D2, D3 and D4 domains of LILRB2 (Fc fusion)	–	–	–	233	107	568	244	161	489	81	24
